The nature of the data set: soluble on expression in E. coli; label from the status in PepcDB or PDB records.
Turning to “MGSDKIHHHHHHMSTELRRVTYGNHGVARLTPAPDKPGTYMGMPKFSKAVKGELNLSVQRKNMRNATMTIRNKRAMRVSESPDWQDLRDAAESIKNRVGRHLDHYLVEAEKNLTANGVHVHWARDGEEANRIVAQIAKDKGVDEVVKIKSITSQETDLNEYLEEQGIAAWETDLAELIVQLGHDRPSHIVVPAIHRNRAEVREIFLHEMKNYGRPAPEDISENPPELTNAARLHLREKFLRAEMAVSGGNFVLADTGSLVIVESEGNGRMCLTLPDTLVSIVGIEKVLPSFDDLEVFLKLLPRSATGERMNPYNSVWSGVTDGDGPQEQHVIFLDNGRTDVLADTLGREVLRCIRCASCINICPVYERAGGHAYGSVYPGPIGAVLNPQLRGVEHPVDRGLPYACSLCGACNEVCPVKIPFTDILLKLRNKVVKSEKADRIPQDYEVAGEMGLMKTASWAFSDHKHFEAIQVGSRGVGRVLRGKKMGPVPVPVAERWLKYRDVDAPPADTFRTWWKKNREAQR”, the “soluble on expression in E. coli” value was “not soluble”.

In the case of “LADSIVPRQQWAAIEPRRQIKMNGRADEIFLWQTGPDTCSLMGLTADKCQGCLQDSSCTEQIVKALQDADFKEGNDDIKYNFLIDQDGVIYEGRGWGVVGQHTKGRDSHSIGVAVIGDFGKKEPSQALQDALSKLIICGQAAEELSSGARLRTTPAMSGQAFYDMLDRCDGLCLDD”, the “soluble on expression in E. coli” value was “soluble”.

For the sequence “MSLTIITMIRFYGFSVMLENEQLKIEYGLFNKKKVTVPTKRLQAVVERQSYIRRLFGYTAIHFIITSDFENKKIEDDDNDSGSVPILPFIKRDKAYQIIQNLVPDLSYQQVNEGMPLSGFHEGHHHHHH”, the “soluble on expression in E. coli” value was “not soluble”.

With “MPEDILVDIKRDYVLSKLRDNERIDGRGFDEFRKVEIIPNVIEKAEGSALVKLGDTQVVVGVKMQPGEPYPDTPDRGVIIVNAELVPLASPTFEPGPPDENSIELARVVDRGIRESEAVDLSKLVIEEGEKVWIVFVDIHALDDDGNLLDASALAAIAALMNTKVPAERFDLGEDYLLPVRDLPVSVTSLIVGNKYLVDPSREEMSVGDTTLTITTDKDDNVVAMQKSGGYLLDEKLFDELLDVSINCARKLREKFKEI”, the “soluble on expression in E. coli” value was “soluble”.

Turning to “MSGNSSTDMYLFKKSLKELKGKKGKGTELISVYVPAGRRLSDISQYLRQELSQSSNIKSKTTMKNVQSAIEVILQRLKLLKEPLEMGVIIFAGMIPRGGPGTEKMEVYVLEPPEPVKTFVYRCDSLFYTDPLEDFIQDTEVYGVILVDRNEATIGTVKGKTITVLKKLTSGVPGKFKAGGQSARRLERLIDDAAHQFMVRIGEYATESFMPILEEKKLKGLLLGGPGNTKNEFAEKDYLHHELKKKIIDTFDLCYTEEFGIRELLDKASDLLRDLDLMKEKNLIQKFFKELIKDDGGLSAYGEAQVMKYLEMGAIDTLIVTEDIGITRVTVKCNNCDYAQEVNVKTNEMFKFEEQLKTKACPTCGGAMYIDEEKDIIEHLSDLCHMHNTDIIVVSTDTEEGSQISRAFKGMAAILRYKL”, the “soluble on expression in E. coli” value is reported as “not soluble”.

“MGSDKIHHHHHHMWFRNLLIYRLAGEVITSDELEAYLAKQTLQGCLGLEPQSRGWVPPGIAEADLVYSYGQQMLIALGTEKKLLPASVVNQLAKVRAQEMESHQGYAPGRKQMKEIKEAAYRELLSRAFAIRQRSHAWIDPVGGWFIVEGASASKADALIEAFIKSTGIGLKRIRTTMAPTSAMTAWLSGDDPPAIFSVDSDSIFRSREDKKVSVSYIRQSPDPQEITRHVRTGKEVIRLAMTWRDKISFILDENLQLKRLTLLDIDREPAETAEEQFDSNFFLMTEELRQLLPDLVEILGGMTAD”: the “soluble on expression in E. coli” value is given as “not soluble”.

With “MGSDKIHHHHHHMSALYQALPAVDKLLKTPQGEQLVAEFGHSATVNMCRDLLQQAREHIKRHENLPHFLQNTDATFQHLKEQLLLQQQVNIKTVHNLTGTVLHTNLGRALWSPAAQQAALDAMQGNVALEYDLSAGERSHRDNYISALMQQLTGAEAACVVNNNAAAVLLMLATFAQGKEVIISRGELIEIGGAFRIPDIMAQAGCKLVEVGTTNRTHLKDYRNAINENTAFLMKVHSSNYQICGFTHSVDEQELADLGKEFGIPVITDLGSGALMDLKQFGLPEEPTVQEKLQHGVDLISFSGDKLLGGPQAGIIVGKKALIQQLQAHPLKRVLRCDKVTLAGLEATFRLYLQPEKITEKLTALLLLTQPMERLQAQAEQLKVRLENRLNTNYVIAIEPSEAQIGSGSQPLARIPSVAVTIAPASEKTPAKTTALFARLLALPQPVIGRIERDKIWLDLHSLASLDRLLNSLETL”, the “soluble on expression in E. coli” value was “not soluble”.

As for “MAPRTYASVLTTPRGPAPLALYCPEAPECPKLEAISNLSFQQITQQAGTSNDQGFEFENTYVEHRINQEIESFVDTHHQEPLRKAAAQFRAVMKQEYPDSTCFITGSYPAGVDIFSSDIDFTVKVPTLEGANPFLKLMQLRKELSCYYTIFSKAYVQKGNIPVLQLMHAETKVSIDVTIDNDTSKRNTQLLAFYSQLDTRFPLLCKAMKAWAASCGVEGASRGRLNSFSLCLMLIHYLQTVQVLLNIQEIFPELNGDIVVEDDNYMKRDLKIEILEKGAFDFNQNTSSLAVLFIGFMKYYSEFNFKWNWISIKHGNVLKKKWSKTRVPKNGMPKDCRFIVVADPLLEIPRNCAGTVRQQNYMERIQLEFREEYERILKRKTIFNLYQCNWSRKLRKEGMERDLQIMILQDELRKLRIANLPTEEEVPWGTVVDFTSPRTFSPTNQHPKVFWCSEQTTENQRRDNLWPELLRTNPYAIFENLI”, the “soluble on expression in E. coli” value is listed as “soluble”.

For the sequence “MSLEAKEVYFEQRGDIGYIVINNAPENMITLSLLEEFSNIVENSIINSKIKGIIITGKGRHFSSGTDIGKLKQTILKTAYIKENNSLVECSEFKRYIDALSSLYSINIPVISAINGLCIGSGFEIALHSHIRICSKGSIVGSPESTFGLMPGLGGISRYVQLCGLGKALELVLSGDLLSVNEALEIGIIDKIVKKNEISDYCNRLMEYILKNEMIYSKSKINSYIKLCDEGHHHHHH”, the “soluble on expression in E. coli” value is listed as “soluble”.

On to “MTKYRLSEEPRAFTYQVDGEKKSVLLRQVIAVTDFNDVKAGTSGGWVDAGNVLSQQGDCWIYDENAMAFAGTEITGNARITQPCSLYNNVRIGDNVWIDRSDISDGARISDNVTIQSSSVRGECAIYGDARVLNQSEILAVQGLTHEHAQILQIYDRATVNHSRIVHQVQLYGDATITLAFIEHRAEVFDFALIEGNKDNNVWICDCAKVYGHARVIAGTEEDAIPTLRYSSQVAEHALIEGNCVLKHHVLVGGHAEIRGGPILLDDRVLIEGQACIQGEILIEHQVEISGRATVIAFDGNTIHLRGPKVINGEDRITRTPLVGSLLEHHHHHH”, for which the “soluble on expression in E. coli” value is recorded as “soluble”.

Consider “MNTLFMHCRPGFEGEVCSEIADLAARLDVSGYAKARPDTACAEFICTEADGAERLMNGQRFDTLIFPRQWARGLFLDLPETDRISVILAQLSTFPTCGSLWLEVVDTNDGKELSNFCKKFEAPLRKALTQAGKLVDDPRKPRLLLTFKSGREVFLGLAEADNSAMWPMGIPRLKFPREAPSRSTLKLEEAWHHFIPRDQWDERLSGDMTGVDLGAAPGGWTYQLVRRGMLVTAIDNGPMAESLMDTGLVQHLMADGFTYKPRHPVDWMVCDIVEKPARNAALLETWLGEGLCREAVVNLKLPMKQRYAEVRRLLDRIEEGFQARGVRVSIGCKQLYHDREEVTCHLRRLDVAKAARK”, for which the “soluble on expression in E. coli” value is recorded as “not soluble”.

For “MSAVEQFVSYCRDEIEIVARLVDLLEQEQKLLIRGESLQLEPLADRKSEVLDQLAAQSAQRGRLMESLGVQDKDTLYIWLADKPSACKEWTRLEDAVNRAQSINQLNAAFVDERLAQVESSLDVLRTAAASTLGYGPDGQPPELVSGRRLLGSA”, the “soluble on expression in E. coli” value was “not soluble”.

With “MSAYPKSYNPFDDDGEDEGARPAPWRDARDLPDGPDAPADRQQYLRQEVLRRAEATAASTSRSLALMYESEKVGVASSEELARQRGVLERTEKMVDKMDQDLKISQKHINSIKSVFGGLVNYFKSKPVETPPEQNGTLTSQPNNRLKEAISTSKEQEAKYQASHPNLRKLDDTDPVPRGAGSAMSTDAYPKNPHLRAYHQKIDSNLDELSMGLGRLKDIALGMQTEIEEQDDILDRLTTKVDKLDVNIKSTERKVRQL”, the “soluble on expression in E. coli” value is given as “soluble”.

On to “SENSDVINFSCLEKELHSALQADRKYQRENDAKFRALNQKVASYEEFRDIVLASHLKPLDRNDISGSPRKQPWNPVACRTNYVCASSEQVQPQLSEVQPRSASEFIRDWRRFAGCSFEKYSLLVSLGGEALQKIFSTEIGLGLLGEFLLILSQCLKSGDEDRVTGVLDGLSKTGRFSINLSLLSQAEQEACEELFNKLKVAAGECHPYKDNSNTSVVCEAGLTHMEDNKTDITTTLKELAGKYGTEK”, for which the “soluble on expression in E. coli” value is given as “soluble”.

Regarding “MAYVTLYPNLILEALGKVRYPGTGKDLVSAGMVEDDIRIDGNKVSFSLIFDKANDPFIKSVVKAAESAILTYISEDVNIKGNISVKSKQAIPAPPAKLLPGVKNIIAVFSGKGGVGKSTVTANLAVSLAKSGYRVGLLDADIFGPSMPKMFHCEESRPVLEEVDGRELIVPEEVMGVKILSIGFFVDPDNAVLWRGSMAGNALTQLIRDANWGELDYFLIDMPPGTSDIHLTLVQTLAITGAVVVTTPQDVALADARKGISMFVGEKINVPVLGLVENMSWFTPAELPQNKYYIFGRDGGKNLAEELNIPLLGQIPLVQGICQSGDEGIPVAVRDDSMMGIAFRELAARVVEQVDYRNEHLDPTKVVEVAHR”, the “soluble on expression in E. coli” value is on record as “not soluble”.

As to “MGSDKIHHHHHHMSDRNTSNSLTLKERMLSAGAGSVLTSLILTPMDVVRIRLQQQQMIPDCSCDGAAEVPNAVSSGSKMKTFTNVGGQNLNNAKIFWESACFQELHCKNSSLKFNGTLEAFTKIASVEGITSLWRGISLTLLMAIPANMVYFSGYEYIRDVSPIASTYPTLNPLFCGAIARVFAATSIAPLELVKTKLQSIPRSSKSTKTWMMVKDLLNETRQEMKMVGPSRALFKGLEITLWRDVPFSAIYWSSYELCKERLWLDSTRFASKDANWVHFINSFASGCISGMIAAICTHPFDVGKTRWQISMMNNSDPKGGNRSRNMFKFLETIWRTEGLAALYTGLAARVIKIRPSCAIMISSYEISKKVFGNKLHQ”, the “soluble on expression in E. coli” value is “not soluble”.

“MHHHHHHSSGVDLGTENLYFQSMSRVLQAEELHEKALDPFLLQAEFFEIPMNFVDPKEYDIPGLVRKNRYKTILPNPHSRVCLTSPDPDDPLSSYINANYIRGYGGEEKVYIATQGPIVSTVADFWRMVWQEHTPIIVMITNIEEMNEKCTEYWPEEQVAYDGVEITVQKVIHTEDYRLRLISLKSGTEERGLKHYWFTSWPDQKTPDRAPPLLHLVREVEEAAQQEGPHCAPIIVHCSAGIGRTGCFIATSICCQQLRQEGVVDILKTTCQLRQDRGGMIQTCEQYQFVHHVMSLYEKQLSHQS”: the “soluble on expression in E. coli” value is “soluble”.

For the sequence “MGSDKIHHHHHHMVEVLERLGCETVLPEKQICCGQPTYNSGYSKDSMKTFKNEIDALLSIDADYIVGPSGSCVFMIKEYKDIFKDDPEYGPKAAEIDSKIYEFTQFIYRVLKVVDCGAELDAKVTVHRSCHMTRLIGERTAPFVLLDHVKDIERVPLKNVQLCCGFGGTFSAKRPELSVEMVDEKVKNIVDTDAEILIGTEESCLMNIVGRMNRLGYKIKAMHIAEVLNHNVDINRIKYIKDTDHVVVPANGEGVF”, the “soluble on expression in E. coli” value is “not soluble”.

With “MAHHHHHHMSTEEQQVTQGTAHAPAPTTVKNKANSYYYWHQHEKDRAKVGDVAPMPTPYLVSKDDARAMAAPAVPTVSVSKYSWCDGDKFVSVYIDTVVPEGGTLDESSIEATFTGNSFKVTFATADEAGRTRAKSLSIRLSKRIDKDRSSTKVKPKTQQILVRLAKKVESVWLDLEGEASDQDSAADSEAADAE”, the “soluble on expression in E. coli” value was “soluble”.

“MDFYYLPGSAPCRAVQMTAAAVGVELNLKLTNLMAGEHMKPEFLKINPQHCIPTLVDNGFALWESRAICTYLAEKYGKDDKLYPKDPQKRAVVNQRLYFDMGTLYQRFADYYYPQIFAKQPANAENEKKMKDAVDFLNTFLDGHKYVAGDSLTIADLTVLATVSTYDVAGFELAKYPHVAAWYERTRKEAPGAAINEAGIEEFRKYFEK”: the “soluble on expression in E. coli” value was “soluble”.

For the origin of these results see the DeepSol protein solubility set.
